Experimental findings from FireProtDB (doi:10.1016/j.jmb.2005.09.061) are described below.

The conditions of this data set: Capra hircus, pH 7, Thermal, CD, sodium cacodylate 50 mM, NaCl 50 mM, reversible: Yes, whole UniProt chain shown.

Where “and” joins values, the source holds several entries; their conditions need not be identical. Equal entries are not always repeated.

B1: Alpha-lactalbumin wild type, P00712 (protein)
chain: MMSFVSLLLVGILFHATQAEQLTKCEVFQKLKDLKDYGGVSLPEWVCTAFHTSGYDTQAIVQNNDSTEYGLFQINNKIWCKDDQNPHSRNICNISCDKFLDDDLTDDIVCAKKILDKVGINYWLAHKALCSEKLDQWLCEKL
Take B1: the “heat capacity change of unfolding” value came out at 1.8 kcal/mol/K; the “unfolding enthalpy (van 't Hoff)” value was 85.1 kcal/mol and 69.5 kcal/mol. For the same protein, where the note is “59 °C”, the “heat capacity change of unfolding” value was determined as 1.8 kcal/mol/K and the unfolding free energy came to 0 kcal/mol.
